Measured values reported in patent US20100317566A1 (MOREHOUSE SCHOOL OF MEDICINE, published 2010).

How the values were obtained:
Experiment in all cases: FLAG-peptide resin pulldown from Jurkat lysate, SDS-PAGE, mass spectrometry
Mortalin/GRP75 = target: T1, Mortalin/GRP75 (UniProt P38646 47-679)
T1 construct: Endogenous protein pulled down from Jurkat cell lysate, identified by mass spectrometry and by Western blot (~75 kDa); also called glucose-regulated protein 75

Vimentin = target: T2, Vimentin (UniProt P08670 2-466)
T2 construct: Endogenous protein pulled down from Jurkat cell lysate, identified by mass spectrometry
T2 sequence (P08670 2-466 limits assumed): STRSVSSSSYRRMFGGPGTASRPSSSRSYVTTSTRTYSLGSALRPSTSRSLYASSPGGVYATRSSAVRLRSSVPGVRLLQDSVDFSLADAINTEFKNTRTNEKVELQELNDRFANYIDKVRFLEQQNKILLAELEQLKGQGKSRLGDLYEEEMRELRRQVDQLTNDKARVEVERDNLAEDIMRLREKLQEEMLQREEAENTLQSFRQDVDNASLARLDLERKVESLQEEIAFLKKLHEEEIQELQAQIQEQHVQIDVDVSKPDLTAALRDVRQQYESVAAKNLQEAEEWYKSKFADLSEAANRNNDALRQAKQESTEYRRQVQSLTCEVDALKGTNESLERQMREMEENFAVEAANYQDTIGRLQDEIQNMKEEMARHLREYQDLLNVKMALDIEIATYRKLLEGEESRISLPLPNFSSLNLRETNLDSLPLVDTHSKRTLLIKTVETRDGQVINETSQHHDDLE

GRP78 = target: T3, GRP78 (UniProt P11021 19-654)
T3 construct: Endogenous protein pulled down from Jurkat cell lysate, identified by mass spectrometry
T3 sequence (P11021 19-654 limits assumed): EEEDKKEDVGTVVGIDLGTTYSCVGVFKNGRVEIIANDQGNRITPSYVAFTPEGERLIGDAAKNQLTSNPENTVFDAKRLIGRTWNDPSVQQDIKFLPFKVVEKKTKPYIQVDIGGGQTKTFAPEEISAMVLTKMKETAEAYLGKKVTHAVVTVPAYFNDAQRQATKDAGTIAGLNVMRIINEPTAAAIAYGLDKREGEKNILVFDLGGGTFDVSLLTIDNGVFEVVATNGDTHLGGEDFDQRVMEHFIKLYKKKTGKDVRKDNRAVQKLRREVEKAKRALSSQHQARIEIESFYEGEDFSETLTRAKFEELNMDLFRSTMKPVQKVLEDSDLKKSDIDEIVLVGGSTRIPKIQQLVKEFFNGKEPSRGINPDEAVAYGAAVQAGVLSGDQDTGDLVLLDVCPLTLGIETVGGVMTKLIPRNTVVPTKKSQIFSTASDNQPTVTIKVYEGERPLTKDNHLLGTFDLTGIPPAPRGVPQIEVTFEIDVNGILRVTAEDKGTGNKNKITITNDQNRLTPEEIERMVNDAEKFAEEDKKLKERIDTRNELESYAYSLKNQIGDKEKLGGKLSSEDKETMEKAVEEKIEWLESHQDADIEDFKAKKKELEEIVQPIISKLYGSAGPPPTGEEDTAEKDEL

HSC70 = target: T4, HSC70 (UniProt P11142 2-646)
T4 construct: Endogenous protein pulled down from Jurkat cell lysate, identified by mass spectrometry
T4 sequence (P11142 2-646 limits assumed): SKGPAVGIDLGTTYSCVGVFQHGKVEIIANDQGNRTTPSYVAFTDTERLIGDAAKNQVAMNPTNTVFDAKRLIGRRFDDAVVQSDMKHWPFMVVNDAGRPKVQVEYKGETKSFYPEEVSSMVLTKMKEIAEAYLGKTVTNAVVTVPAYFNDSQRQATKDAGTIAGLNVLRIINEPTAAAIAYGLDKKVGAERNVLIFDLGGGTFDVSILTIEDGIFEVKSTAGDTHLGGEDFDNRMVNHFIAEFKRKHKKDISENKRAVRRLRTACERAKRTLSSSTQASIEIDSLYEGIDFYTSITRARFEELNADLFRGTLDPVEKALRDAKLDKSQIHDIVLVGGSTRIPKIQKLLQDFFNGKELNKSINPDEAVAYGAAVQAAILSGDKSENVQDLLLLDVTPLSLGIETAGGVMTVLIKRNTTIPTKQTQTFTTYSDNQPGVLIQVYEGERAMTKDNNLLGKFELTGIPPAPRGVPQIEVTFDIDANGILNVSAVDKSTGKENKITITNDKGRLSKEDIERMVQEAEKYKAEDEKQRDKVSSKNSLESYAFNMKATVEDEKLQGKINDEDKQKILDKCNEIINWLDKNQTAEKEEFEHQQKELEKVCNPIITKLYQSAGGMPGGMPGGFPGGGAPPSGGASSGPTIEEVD

Measured: binding result

T1 sequence (P38646 47-679 limits assumed): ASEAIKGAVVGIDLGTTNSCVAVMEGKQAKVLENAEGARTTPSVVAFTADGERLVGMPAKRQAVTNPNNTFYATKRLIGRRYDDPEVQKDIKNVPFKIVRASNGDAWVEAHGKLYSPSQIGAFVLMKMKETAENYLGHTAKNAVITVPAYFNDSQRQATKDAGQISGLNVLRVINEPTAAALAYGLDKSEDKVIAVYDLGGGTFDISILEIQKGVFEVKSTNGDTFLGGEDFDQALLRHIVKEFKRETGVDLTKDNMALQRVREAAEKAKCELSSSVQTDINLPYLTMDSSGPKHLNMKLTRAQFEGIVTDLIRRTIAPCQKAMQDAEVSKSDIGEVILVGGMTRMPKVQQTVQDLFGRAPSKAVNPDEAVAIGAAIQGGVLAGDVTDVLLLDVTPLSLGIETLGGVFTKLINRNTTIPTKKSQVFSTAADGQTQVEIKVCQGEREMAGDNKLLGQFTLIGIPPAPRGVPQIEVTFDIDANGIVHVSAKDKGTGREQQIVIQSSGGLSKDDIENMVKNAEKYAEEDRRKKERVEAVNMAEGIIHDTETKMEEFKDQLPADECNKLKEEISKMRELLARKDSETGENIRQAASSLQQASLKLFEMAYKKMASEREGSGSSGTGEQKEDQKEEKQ

B1: HIV-1 NefSMRmt peptide (H2N-AGFPVAAAGFPVDYKDDDDK-OH) (peptide)
peptide: H-AGFPVAAAGFPVDYKDDDDK-OH
notes: Made commercially; also called SMRmut; HIV-1 NefSMRmut
no binding: all assays above
